This is an account of results in patent US20090041777A1 (UNIVERSITY OF MASSACHUSETTS, published 2009).

Usually EC50 (read off the curve) stands for the midpoint of the concentration-response curve. A word on the Kd: it is a measure of binding affinity in units of concentration. Read a low Kd as tighter binding.

Experiment [1] deals with T1, ERA-CO glycoprotein (codon-optimized full-length rabies G glycoprotein, ERA strain, amino acids 1-524, … (rabies virus, ERA strain, UniProt P03524 20-524)).
T1 sequence: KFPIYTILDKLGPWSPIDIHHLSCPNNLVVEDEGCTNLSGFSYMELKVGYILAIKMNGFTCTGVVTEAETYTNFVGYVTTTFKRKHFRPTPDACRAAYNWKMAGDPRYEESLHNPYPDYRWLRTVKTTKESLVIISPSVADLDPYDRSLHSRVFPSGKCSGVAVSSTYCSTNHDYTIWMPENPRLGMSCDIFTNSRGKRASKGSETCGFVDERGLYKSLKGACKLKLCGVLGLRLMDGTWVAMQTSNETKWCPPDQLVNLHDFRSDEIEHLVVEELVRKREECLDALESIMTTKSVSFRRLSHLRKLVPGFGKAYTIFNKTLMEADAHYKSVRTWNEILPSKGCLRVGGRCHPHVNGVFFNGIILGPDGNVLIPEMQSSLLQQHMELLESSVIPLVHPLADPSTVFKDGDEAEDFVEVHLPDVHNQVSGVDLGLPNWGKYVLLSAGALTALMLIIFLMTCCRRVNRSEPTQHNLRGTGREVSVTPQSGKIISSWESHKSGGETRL
In words: flow cytometry on transfected 293T cells, PE anti-human IgG. For orientation: A flow cytometer gives signals particle by particle.

Experiment [2] deals with T2, ERA-CO20-439 (secreted soluble ectodomain of codon-optimized ERA rabies G glycoprotein, Myc/His tagged) (rabies virus, ERA strain, UniProt P03524 20-439).
T2 sequence: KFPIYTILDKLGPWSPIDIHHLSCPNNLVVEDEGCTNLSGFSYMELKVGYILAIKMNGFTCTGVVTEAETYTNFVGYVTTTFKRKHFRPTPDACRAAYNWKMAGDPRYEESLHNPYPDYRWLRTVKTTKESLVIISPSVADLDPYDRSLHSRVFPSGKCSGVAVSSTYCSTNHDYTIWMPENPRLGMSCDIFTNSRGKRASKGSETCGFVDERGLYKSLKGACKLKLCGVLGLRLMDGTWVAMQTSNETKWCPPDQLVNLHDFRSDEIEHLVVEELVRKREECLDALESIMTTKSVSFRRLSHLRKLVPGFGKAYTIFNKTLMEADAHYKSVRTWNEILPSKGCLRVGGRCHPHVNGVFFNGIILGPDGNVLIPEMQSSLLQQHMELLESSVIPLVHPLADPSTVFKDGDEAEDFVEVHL
In words: Biacore (SPR) on the ectodomain region of codon-optimized rabies G glycoprotein. On the technique in general: SPR reads the build-up and loss of mass on a sensor chip optically.

B1: HuMab 17C7 (antibody, V domains shown)
VH: QVQLVESGGGVVQPGRSLRLSCAASGFTFSTYAMHWVRQAPGKGLEWVAVVSYDGRTKDYADSVKGRFTISRDNSKNTLYLQMNSLRTEDTAVYFCARERFSGAYFDYWGQGTLVTVSS
VL: EIVLTQSPATLSLSPGERATLSCRASQSVSSYLAWYQQKPGQAPRLLIYDASNRATGIPARFSGSGSGTDFTLTISSLEPEDFAVYSCQQRNNWPPTFGGGTKVEIK
As to B1, in experiment [1], the “EC50 (read off the curve)” value was approximately 30 nM. The molecule further came in with a dissociation constant (Kd) in experiment [2] not above 13.6 nM.
